{
  "source": "paper PMC8260207",
  "molecular_target": "Purified human ribosomes from HEK293 cells (human)",
  "data": [
    {"substance": "purified, recombinant human cGAS (from UniProt Q8N884 1-522) (natural protein)", "values": [
      {"measurement": "cGAMP synthesis by cGAS (thin-layer chromatography) with saturating DNA, fold stimulation by pre-incubation with purified ribosomes, cGAS at 150–300 nM", "value": 8, "unit": "fold"}
    ]}
  ]
}
